The assay concerns the target chimeric OX40 construct 1549: Human OX40 with mouse domains 1A and 4B and region non-annotated extracellular region (aa 30-65 and aa 127-214) (human; mouse) (UniProt P47741). Description: flow cytometry, transfected 293-F cells.

These results are taken from US20200048358A1.

B1: anti-OX40 antibody 1170/1171 (antibody, V domains shown)
VH: EVQLLESGGGLVQPGGSLRLSCAASGFTFGGYYMSWVRQAPGKGLEWVSYIPGSGGSTYYADSVKGRFTISRDNSKNTLYLQMNSLRAEDTAVYYCARYDYYWMDYWGQGTLVTVSS
VL: DIQMTQSPSSLSASVGDRVTITCRASQSISSYLNWYQQKPGKAPKLLIYAASSLQSGVPSRFSGSGSGTDFTLTISSLQPEDFATYYCQQGHGSYPHTFGQGTKLEIK
As for B1, the relative MFI compared to isotype control is 12.1.

B2: anti-OX40 antibody 1166/1167 (antibody, V domains shown)
VH: EVQLLESGGGLVQPGGSLRLSCAASGFTFGGYYMSWVRQAPGKGLEWVSAISGSGGSTYYADSVKGRFTISRDNSKNTLYLQMNSLRAEDTAVYYCARYDYASMDYWGQGTLVTVSS
VL: DIQMTQSPSSLSASVGDRVTITCRASQSISSYLNWYQQKPGKAPKLLIYAASSLQSGVPSRFSGSGSGTDFTLTISSLQPEDFATYYCQQYYWYGLSTFGQGTKLEIK
Take B2: the relative MFI compared to isotype control turned out to be 11.3.

B3: anti-OX40 antibody 1526/1527 (antibody, V domains shown)
VH: EVQLLESGGGLVQPGGSLRLSCAASGFTFSGYSMYWVRQAPGKGLEWVSGIGYSGYGTYYADSVKGRFTISRDNSKNTLYLQMNSLRAEDTAVYYCARYYFHDYAAYSLDYWGQGTLVTVSS
VL: DIQMTQSPSSLSASVGDRVTITCRASQSISSYLNWYQQKPGKAPKLLIYAASSLQSGVPSRFSGSGSGTDFTLTISSLQPEDFATYYCQQYGSDSLLTFGQGTKLEIK
The molecule B3 yielded a relative MFI compared to isotype control of 8.5.

B4: anti-OX40 antibody 1524/1525 (antibody, V domains shown)
VH: EVQLLESGGGLVQPGGSLRLSCAASGFTFGSYYMGWVRQAPGKGLEWVSSIGSYYGYTYYADSVKGRFTISRDNSKNTLYLQMNSLRAEDTAVYYCARHDYGALDYWGQGTLVTVSS
VL: DIQMTQSPSSLSASVGDRVTITCRASQSISSYLNWYQQKPGKAPKLLIYAASSLQSGVPSRFSGSGSGTDFTLTISSLQPEDFATYYCQQYGPSGLFTFGQGTKLEIK
B4 registered a relative MFI compared to isotype control of 11.2.

B5: anti-OX40 antibody 1482/1483 (antibody, V domains shown)
VH: EVQLLESGGGLVQPGGSLRLSCAASGFTFSSYAMSWVRQAPGKGLEWVSYISYYSGYTYYADSVKGRFTISRDNSKNTLYLQMNSLRAEDTAVYYCARGYGYLDYWGQGTLVTVSS
VL: DIQMTQSPSSLSASVGDRVTITCRASQSISSYLNWYQQKPGKAPKLLIYAASSLQSGVPSRFSGSGSGTDFTLTISSLQPEDFATYYCQQYGSLLTFGQGTKLEIK
Molecule B5 returned a relative MFI compared to isotype control of 8.7.

B6: anti-OX40 antibody 1514/1515 (antibody, V domains shown)
VH: EVQLLESGGGLVQPGGSLRLSCAASGFTFGYYYMSWVRQAPGKGLEWVSGISSYGSYTYYADSVKGRFTISRDNSKNTLYLQMNSLRAEDTAVYYCARSGYSNWANSFDYWGQGTLVTVSS
VL: DIQMTQSPSSLSASVGDRVTITCRASQSISSYLNWYQQKPGKAPKLLIYAASSLQSGVPSRFSGSGSGTDFTLTISSLQPEDFATYYCQQGDYTLFTFGQGTKLEIK
As for B6, the relative MFI compared to isotype control is 10.6.
